The Kd is the constant that tells how readily two partners part at equilibrium.

What all share (experiment): SPR; human
On the technique in general: SPR reads the build-up and loss of mass on a sensor chip optically.

For one assay, the target named is SDIE.
A further assay addresses Afucosylated.
In the next assay the target is T1, human FcγRIIB (human, UniProt P31994 43-217).
T1 chain: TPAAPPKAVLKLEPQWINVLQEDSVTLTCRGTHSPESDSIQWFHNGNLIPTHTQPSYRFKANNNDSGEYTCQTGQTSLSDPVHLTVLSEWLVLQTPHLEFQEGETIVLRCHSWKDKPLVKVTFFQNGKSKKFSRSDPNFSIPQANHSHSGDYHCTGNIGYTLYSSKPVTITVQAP

B1: FcγRIIb (receptor)
chain: TPAAPPKAVLKLEPQWINVLQEDSVTLTCRGTHSPESDSIQWFHNGNLIPTHTQPSYRFKANNNDSGEYTCQTGQTSLSDPVHLTVLSEWLVLQTPHLEFQEGETIVLRCHSWKDKPLVKVTFFQNGKSKKFSRSDPNFSIPQANHSHSGDYHCTGNIGYTLYSSKPVTITVQAP
Consider B1, for which the Kd with SDIE amounted to 0.665 µM; with Afucosylated, 5.88 µM.

B2: GAALIE (protein)
chain: ASTKGPSVFPLAPSSKSTSGGTAALGCLVKDYFPEPVTVSWNSGALTSGVHTFPAVLQSSGLYSLSSVVTVPSSSLGTQTYICNVNHKPSNTKVDKRVEPKSCDKTHTCPPCPAPELLAGPSVFLFPPKPKDTLMISRTPEVTCVVVDVSHEDPEVKFNWYVDGVEVHNAKTKPREEQYNSTYRVVSVLTVLHQDWLNGKEYKCKVSNKALPLPEEKTISKAKGQPREPQVYTLPPSREEMTKNQVSLTCLVKGFYPSDIAVEWESNGQPENNYKTTPPVLDSDGSFFLYSKLTVDKSRWQQGNVFSCSVMHEALHNHYTQKSLSLSPGK
Take B2: binding with human FcγRIIB was put at a Kd of 19.6 µM. In other words, the double-digit micromolar range.
